Substitutions are numbered along the chain they refer to.
Key:
[1] = tested on: T1, dCas12j-8 E258R+D313R+D495R+D527R E258R;D313R;D495R;D527R;D369A;E567A;D658A (bacteriophage (metagenome)); conditions: HEK293T cells; panel 1e (compare within a panel only); scale: mean GFP / mean GFP of wild type, printed, no background subtraction
T1 sequence: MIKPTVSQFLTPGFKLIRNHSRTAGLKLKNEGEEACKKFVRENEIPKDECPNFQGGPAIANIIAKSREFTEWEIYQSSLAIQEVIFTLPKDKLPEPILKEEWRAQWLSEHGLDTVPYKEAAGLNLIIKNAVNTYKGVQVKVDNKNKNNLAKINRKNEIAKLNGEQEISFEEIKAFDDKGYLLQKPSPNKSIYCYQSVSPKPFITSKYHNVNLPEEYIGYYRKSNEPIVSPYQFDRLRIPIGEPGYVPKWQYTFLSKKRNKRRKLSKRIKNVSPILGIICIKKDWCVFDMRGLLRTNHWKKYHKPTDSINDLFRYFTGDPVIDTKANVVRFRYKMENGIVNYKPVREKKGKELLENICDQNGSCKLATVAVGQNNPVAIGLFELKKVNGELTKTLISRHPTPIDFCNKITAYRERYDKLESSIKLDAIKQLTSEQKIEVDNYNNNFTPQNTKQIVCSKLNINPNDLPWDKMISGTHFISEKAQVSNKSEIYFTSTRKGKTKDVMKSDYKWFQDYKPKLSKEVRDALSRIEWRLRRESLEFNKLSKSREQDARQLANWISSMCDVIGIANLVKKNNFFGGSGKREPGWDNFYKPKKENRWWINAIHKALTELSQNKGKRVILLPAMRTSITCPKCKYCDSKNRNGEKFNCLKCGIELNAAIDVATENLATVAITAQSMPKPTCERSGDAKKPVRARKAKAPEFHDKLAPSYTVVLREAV

[2] = tested on: T2, dCas12j-8 E258R+D313R+E547R E258R;D313R;E547R;D369A;E567A;D658A (bacteriophage (metagenome)); conditions: HEK293T cells; panel 1e (compare within a panel only); scale: mean GFP / mean GFP of wild type, printed, no background subtraction
T2 sequence: T1 sequence with R495D, R527D, E547R

[3] = tested on: T3, dCas12j-8 E258R+D495R E258R;D495R;D369A;E567A;D658A (bacteriophage (metagenome)); conditions: HEK293T cells; panel 1d (compare within a panel only); scale: mean GFP / mean GFP of wild type, printed, no background subtraction
T3 sequence: T1 sequence with R313D, R527D

CUUUCAAGACUAAUAGAUUGCUCCUUACGAGGAGACACUCCCUAUCAGUGAUAGAG / TTNACTCCCTATCAGTGATAGAG / CTCTATCACTGATAGGGAGTNAA [TetO]
binding signal [1]: 5.3 | binding signal [2]: 3.99 | binding signal [3]: 3.18

— PMC12412624, “Engineered Cas12j‐8 is a Versatile Platform for Multiplexed Genome Modulation in Mammalian Cells”
